The values below come from article PMC10397247.

Assay in all cases: two-hybrid library CCmax;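 further: natural log of median RNA to DNA barcode read ratio; higher means stronger binding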
One experiment concerns the target T1, P6-AA-1HGe-S.
T1 chain: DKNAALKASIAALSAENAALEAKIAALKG
The note with it: mean of both orientations.

For the next experiment, the target named is T2, P6-AA-1HGe-T.
T2 chain: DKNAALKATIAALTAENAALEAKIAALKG
The note with it: mean of both orientations.

The next experiment deals with T3, P6-AA-1HGe-W.
T3 chain: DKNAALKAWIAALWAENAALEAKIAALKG
The note with it: mean of both orientations.

The next experiment deals with T4, P6-AA-1HGe-R.
T4 chain: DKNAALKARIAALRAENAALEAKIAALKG
To be noted: mean of both orientations.

Another experiment concerns the target T5, P6-AA-1HGe-A.
T5 chain: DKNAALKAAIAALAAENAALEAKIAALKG
The note with it: mean of both orientations.

For another experiment, the target named is T6, P6-AA-1HGe-M.
T6 chain: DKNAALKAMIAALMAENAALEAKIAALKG
To be noted: mean of both orientations.

In the next experiment the target is T7, 4H697-AA.
T7 chain: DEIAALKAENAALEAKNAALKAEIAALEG
To be noted: mean of both orientations.

The target in another experiment is T8, 4H3133-AA.
T8 chain: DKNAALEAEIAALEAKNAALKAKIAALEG
The note with it: mean of both orientations.

The target in another experiment is T9, 4H3865-AA.
T9 chain: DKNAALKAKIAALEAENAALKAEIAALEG
To be noted: mean of both orientations.

The next experiment has as its target T10, 4H982-AA.
T10 chain: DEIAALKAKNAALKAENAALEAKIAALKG
To be noted: mean of both orientations.

In another experiment the target is T11, 4H3606-AA.
T11 chain: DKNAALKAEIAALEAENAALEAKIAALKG
The note with it: mean of both orientations.

A further experiment deals with T12, 4H2620-AA.
T12 chain: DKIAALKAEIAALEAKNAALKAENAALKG
The note with it: mean of both orientations.

The target of the next experiment is T13, 4H3697-AA.
T13 chain: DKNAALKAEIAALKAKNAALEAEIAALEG
To be noted: mean of both orientations.

Another experiment concerns the target T14, 4H3718-AA.
T14 chain: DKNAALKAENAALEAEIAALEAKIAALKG
The note with it: mean of both orientations.

In a further experiment the target is T15, 4H384-AA.
T15 chain: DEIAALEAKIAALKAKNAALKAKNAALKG
To be noted: mean of both orientations.

The next experiment has as its target T16, 4H3162-AA.
T16 chain: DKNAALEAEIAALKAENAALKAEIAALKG
To be noted: mean of both orientations.

In the next experiment the target is T17, 4H3588-AA.
T17 chain: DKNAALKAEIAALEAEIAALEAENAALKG
The note with it: mean of both orientations.

The next experiment addresses T18, 4H3378-AA.
T18 chain: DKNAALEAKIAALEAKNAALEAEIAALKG
To be noted: mean of both orientations.

In a further experiment the target is T19, 4H32-AA.
T19 chain: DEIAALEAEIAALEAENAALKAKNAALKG
The note with it: mean of both orientations.

In another experiment the target is T20, 4H340-AA.
T20 chain: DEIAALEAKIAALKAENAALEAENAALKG
The note with it: mean of both orientations.

For the next experiment, the target named is T21, 4H1874-AA.
T21 chain: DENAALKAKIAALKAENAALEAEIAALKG

Another experiment addresses T22, 4H2611-AA.
T22 chain: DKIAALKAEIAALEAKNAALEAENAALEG
To be noted: mean of both orientations.

A further experiment addresses T23, 4H3056-AA.
T23 chain: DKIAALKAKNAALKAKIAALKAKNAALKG
The note with it: mean of both orientations.

The next experiment concerns the target T24, 4H2198-AA.
T24 chain: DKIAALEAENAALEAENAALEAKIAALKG
The note with it: mean of both orientations.

A further experiment addresses T25, 4H2648-AA.
T25 chain: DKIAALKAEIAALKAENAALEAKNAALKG
To be noted: mean of both orientations.

In a further experiment the target is T26, 4H3413-AA.
T26 chain: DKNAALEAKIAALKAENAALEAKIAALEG
To be noted: mean of both orientations.

The target in a further experiment is T27, 4H3631-AA.
T27 chain: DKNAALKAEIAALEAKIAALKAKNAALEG
The note with it: mean of both orientations.

A further experiment has as its target T28, 4H2553-AA.
T28 chain: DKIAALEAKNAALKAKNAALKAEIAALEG
To be noted: mean of both orientations.

Another experiment has as its target T29, 4H2907-AA.
T29 chain: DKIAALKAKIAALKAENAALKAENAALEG
The note with it: mean of both orientations.

Regarding DENAALEAHIAALHAKNAALKAEIAALEG [P5-AA-1HGe-H], the interaction score with P6-AA-1HGe-S came to 1.02; with P6-AA-1HGe-T, 1.88; in the experiment with P6-AA-1HGe-W, 0.42; with P6-AA-1HGe-R, 1.63; with P6-AA-1HGe-A, 1.88; with P6-AA-1HGe-M, 1.95.

On to DENAALKAKIAALKAENAALEAEIAALKG [4H1874-AA], for which the interaction score in the experiment with 4H697-AA was 1.47; with 4H3133-AA, 1.46; with 4H3865-AA, 1.13; in the experiment with 4H982-AA it was -1.36; with 4H3606-AA, 2.08; with 4H2620-AA, 1.59. In addition, the interaction score in the experiment with 4H3697-AA is -0.269; with 4H3718-AA it was -1.5; in the experiment with 4H384-AA it was -0.973; with 4H3162-AA, 1.38; with 4H3588-AA, -1.22; in the experiment with 4H3378-AA it was -0.221. For the same molecule, the interaction score with 4H32-AA was 1.23; in the experiment with 4H340-AA, -1.94; with 4H1874-AA it was 1.18; with 4H2611-AA, -1.33; with 4H3056-AA it was -0.229; with 4H2198-AA, -1.15. The interaction score was -1.44 with 4H2648-AA; -1.35 with 4H3413-AA; -1.14 with 4H3631-AA; -1.21 with 4H2553-AA; -1.61 in the experiment with 4H2907-AA.
